Experimental data as given in IntAct's records for PubMed 12050133.

B1: Homeobox protein SIX3 (Mus musculus), Q62233 (parent)
chain: MVFRSPLDLYSSHFLLPNFADSHHCSLLLASSGGGSGASGGGGGAGGGGGGNRAGGGGAGGAGGGSGGGGSRAPPEELSMFQLPTLNFSPEQVASVCETLEETGDIERLGRFLWSLPVAPGACEAINKHESILRARAVVAFHTGNFRDLYHILENHKFTKESHGKLQAMWLEAHYQEAEKLRGRPLGPVDKYRVRKKFPLPRTIWDGEQKTHCFKERTRSLLREWYLQDPYPNPSKKRELAQATGLTPTQVGNWFKNRRQRDRAAAAKNRLQHQAIGPSGMRSLAEPGCPTHGSAESPSTAASPTTSVSSLTERADTGTSILSVTSSDSECDV

Variants of: B1
Details: with tle4_mouse Tle4, Q62441
Chain of tle4_mouse Tle4, Q62441 (Q62441 whole entry): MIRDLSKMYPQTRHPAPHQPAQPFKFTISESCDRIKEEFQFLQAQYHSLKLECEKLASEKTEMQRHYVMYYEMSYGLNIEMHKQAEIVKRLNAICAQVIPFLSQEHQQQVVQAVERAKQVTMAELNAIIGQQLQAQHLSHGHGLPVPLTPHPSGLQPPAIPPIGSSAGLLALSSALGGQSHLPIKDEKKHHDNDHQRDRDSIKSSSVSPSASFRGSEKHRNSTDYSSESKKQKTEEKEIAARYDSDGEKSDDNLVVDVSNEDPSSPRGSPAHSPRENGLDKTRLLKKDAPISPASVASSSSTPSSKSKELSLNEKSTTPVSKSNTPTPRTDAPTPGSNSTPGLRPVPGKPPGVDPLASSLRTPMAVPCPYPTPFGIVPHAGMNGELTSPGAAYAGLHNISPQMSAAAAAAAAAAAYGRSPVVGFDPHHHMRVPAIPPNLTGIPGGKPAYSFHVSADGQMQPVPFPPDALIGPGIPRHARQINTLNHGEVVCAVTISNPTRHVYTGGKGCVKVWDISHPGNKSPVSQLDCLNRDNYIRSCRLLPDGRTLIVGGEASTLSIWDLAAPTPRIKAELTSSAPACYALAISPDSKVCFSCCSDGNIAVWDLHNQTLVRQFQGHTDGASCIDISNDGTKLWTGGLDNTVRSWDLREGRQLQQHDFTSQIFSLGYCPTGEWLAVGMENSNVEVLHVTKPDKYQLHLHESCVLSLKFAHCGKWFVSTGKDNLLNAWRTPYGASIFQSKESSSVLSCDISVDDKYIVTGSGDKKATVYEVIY

Row | Variant | effect of a mutation on the interaction
1 | F88E | decreasing interaction
